In the nanobody polyreactivity screen of Harvey et al. (2022):

Assay: yeast display, Sf9 membrane polyspecificity reagent, FACS + sequencing; frameworks hold sequencing errors
Summary of the method: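 Genes from sorted yeast were amplified by colony PCR, read by MiSeq 2 × 250 sequencing and filtered on CDR length. These cells carried a synthetic nanobody library in Saccharomyces cerevisiae BJ5465 and were sorted by FACS into low and high (top ~1%) gates on anti-HA and streptavidin fluorescence. Polyreactivity is labelled according to the gate of origin.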

Row | Sequence | polyreactivity (PSR sort gate)
1 | QVQLVESGGGLVQAGGSLRLSCAASGSTFGPNAMGWYRQAPGKERELVATISSGGSTYYADSVKGRFTISRDNAKNTVYLQMNSLKPEDTAVYYCAVRTIIRPVDLYDYWGQGTQVTVSS | low polyreactivity
2 | QVQLVESGGGLVQAGGSLRLSCAASGSTFGFNAMGWYRQAPGKERELVAAINSGSTTYADSVKGRFTISRDNAKNTVYLQMNSLKPEDTAVYYCAARYRYRYGYYYWGQGTQVTVSS | high polyreactivity
3 | QVQLVESGGGLVQAGGSLRLSCDASGSIVRYNAMGWYRQAPGKERELVADISTSGGSTYYADSVKGRFTISRDNANNTVYVQMNSLKPEDTAVYYCAKPWYSSGFDYWGQGTQVTVSS | high polyreactivity
4 | QVQLEESGGGLVQAGGSLRLSCAASGSILVIYTMGWYRQAPGKERELVAGINYSGGRTYYADSVKGRFTISRDNAKNTVYLQMNSLKPEDTAVYYCSADYYFLDWYDYWGQGTQVTVSS | low polyreactivity
5 | QVQLVESGGGLVQAGGSLRLSCAASGSTLNLYAMGWFRQAPGKEMELVAAIRSHGVSTYYADSVKGRFTISRDNAKNTVYLQMNRLKPEYTAFYYCAGVYIPGGRYTYFPYKRYDYWGQGTQVTVSS | high polyreactivity
6 | QVQLVESGGGLVQAGGSLRLSCAASGSTFKAYAMGWYRQAPGKERELVAAITNSDGDTYYADSVKGRFTISRDNAKNTVYLQMNSLKPEDTAVYYCIADTGKWGGNGWYEFDYWGQGTQVTVSS | low polyreactivity
7 | QVQLVESGGGLVQAGGSLRLSCAASGSIFVGHAMGWYRQAPGKERELVATISRSGGSTYYADSVKGRFTISRDNAKNTVYLQMNSLKPEDTAVYYCAKTPYRRYSYGGYTYRTYDYWGQGTQVTVSS | low polyreactivity
8 | QVQLVESGGGLVQAGGSLRLSCAASGRIFGSYAMGWYRQAPGKERELVAAITTDDSTNYADSVKGRFTISRDNAKNTVYLQMNSLKPEDTAVYYCNAERWDELFDSWGQVTQVTVSS | low polyreactivity
9 | QVQLVESGGGLVQAGGSLRLSCAASGSIFVTNAMGWYRQAPGKERELVAAIRGGGGSTYYADSVKGRFTISRDNAKNTVYLQMNSLKPEDTAVYYCNADRRGYLQSEMDYWGQGTQVTVSS | low polyreactivity
10 | QDQLVESGGGLVQAGGSLRLSCAASGLTFEKYAMGWYRQAPGKERELVAAISQDGGSTYYADSVKGRFTISRDNAKNTVYLQMNSLKPEDTAVYYCAAEDPDSWLPWDLFDYWGQGTQVTVSS | low polyreactivity
11 | QVQLVESGGGLVQAGGSLRLSCAASGSTFGRYVMGWYRQAPGKERELVAAISGSGGSTYYADSVKGRFTISRDNAKNTVYLQMNSLKPEDTAVYYCAARVAHYEYYWGQGTQVTVSS | high polyreactivity
12 | QVQLVESGGGLVQAGGSLRLSCAASGSIFRPNTMGWYRQAPGKERELVAAIRYRGGGTYYADSVKGRFTISRDNAKNTVYLQMNSLKPEDTAVYFCNAPRRNWSYDYWGQGTQVTVSS | high polyreactivity
13 | QVQLVESGGGLVQAGGSLRLSCAASGFIFWYYAMGWYRQAPGKERELVAAITTSDGSTYYADSVKGRFTISRDNAKNTVYLQMNSLKPEDTAGYYCAADSYYVSYGYYYCGQGTQVTVSS | low polyreactivity
14 | QVQLVESGGGLVQAGASLRLSCAASGSTFDRNVMGWYRQAPGKERELVAAISRVSSTNYADSVKGRFTISRDNAKNTVYLQMNSLKPEDTAVYYCAADRAGSIMNYWGQGTQVTVSS | low polyreactivity
15 | QVQLVESCGGLVQAGGSLRLSCAASGSTFGYYAMGWYRQAPGKETELVAAISSRGGSTYYADSVKGRFTISRDNAKNTVYLQMNSLKPEDTADYYCAARGLFFRNRYGYWGQGTQVTVSS | high polyreactivity
16 | QVQLVESGGGLVQSGGSLRLSCAASGRTFYHYAMGWYRQAHGKERELVATITRNGGITYYADSVKGRFTISRDNAKNTVYLQMNSLKPEDTAVYYCIKRWGGPIQFDYWGQGTEVTVSS | low polyreactivity
17 | QVQLVESGGGLVQAGGSLRLSCASSGSTFYNNALGWYRQAPGKERELVAAISNVSTYYADSVKGRFTISRDNAKNTVYLQLISLKPEDTAVYYCAARGLLWYYSWRYYFWGQGTQVTVSS | low polyreactivity
